The text below walks through data of the nanobody polyreactivity screen of Harvey et al. (2022).

A short description of this data set: yeast display, Sf9 membrane polyspecificity reagent, FACS + sequencing; frameworks hold sequencing errors. The essentials:
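After 36–48 hours of galactose induction, yeast (Saccharomyces cerevisiae BJ5465) displaying a synthetic nanobody library were stained at 4 °C for 1 hour with 10% biotinylated, detergent-solubilized Sf9 membrane reagent. Streptavidin microbeads enriched the stained cells before FACS sorting into low and high (top ~1%) gates on anti-HA and streptavidin fluorescence. Each clone's polyreactivity label reflects its gate of origin.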
With “QVQLVESGGGLVQAGGSLSLSCAASGSIFFYAMGGYRPAPGKERELVADITYTGGSKYADSVKGRFTISRDNAKYTVYLQMNSLKPEDTAVYSCAKLDGGLFDYWGHGTQVTVSS”, the “polyreactivity (PSR sort gate)” value is reported as “low polyreactivity”.
As to “QVQLVESGGGLVQAGGSLSLSCAASGSIFGDYVLGWYRQAPGKERELVAAINRGGSTYYADSVKGRFTISRDNAKNTVYLQMNSLKPEDTAVYYCAAGYPSWYYGYPYDSWGLGTQVTVSS”, the “polyreactivity (PSR sort gate)” value is “low polyreactivity”.
The value for “QVQLVESGGGLVQAGGSLSLSCAASGSIFPYYAMGWYRQAPGKESELVAAISRGGGTTYYADSVKGRFTISRDNAKNSVYLQMNSLKPEDTAVYSGAARRWGEYDYWGQGTQVTVSS” was “high polyreactivity”; that for “QVQLVESGGGLVQAGGSLSLSCAASGSIFVRYAMGWSRHAPWKERELVAAISVRGGRTYYAYSVKGRFTISRDNAKNTVYLQMNRLKPEATAVYYCAAQLYYYYSYVPPGGYWGQGTQVTVSA” was “high polyreactivity”; that for “QVQLVESGGGLVQAGGSLSLSCAASGSILPYNTMGWDRQAPGKERELVAAITSGVGSTYADSVKGRFTISRDNAKNTVYLQMNSLKPEDTAVYYCNASESAIPIGDLGDYWGQGTQVTVSS” was “low polyreactivity”.
In the case of “QVQLVESGGGLVQAGGSLSLSCAASGSILQLYAMGWYRQAPGTERELVAAITESAGSKSYADSVKGRFTISRDNAKITVYLQMNSLKPEDTAVYYCNAEYSAYSGFDVEWSLDYDYWGQGTQVTVSS”, the “polyreactivity (PSR sort gate)” value was “low polyreactivity”.
For the sequence “QVQLVESGGGLVQAGGSLSLSCAASGSISLVYAMGWYRQAPGKERELVAAISASGGRTYYADSVKGRFTISRDNAKNTVYLQMNSLKPEDTAVYYFSKDVKKIEFDYWGQGTQVTVSS”, the “polyreactivity (PSR sort gate)” value is reported as “high polyreactivity”.
The result for “QVQLVESGGGLVQAGGSLSLSCAASGSNFKAYAMGWYRQAPGKERELVAAITKSGGRTYYADSVKGRFTISRDNAKNTVYLQMKSLNPEDTAVYSCAAVFRPDSSAYRYYYWGQGTQVTVST” reads “high polyreactivity”; that for “QVQLVESGGGLVQAGGSLSLSCAASGSSFGGYTMGWYRQAPGKERELVAAISRRGGNTYYADSVKGRFTISRDNAKNTVYLQMNSLNPEETAVYYCAVRWPSARIPVKLDYWGQGTQVTVSS”, “high polyreactivity”.
Consider “QVQLVESGGGLVQAGGSLSLSCAASGSTFAYYAMGWSRQAPGKERELVAGITWTGGSTYYADSVKGRFTISRDNAKNTVYLQMNSLKPEDTAVYYCAVTYPYGYEYDHWGQGSQVTVSS”, for which the “polyreactivity (PSR sort gate)” value is “low polyreactivity”.
Take “QVQLVESGGGLVQAGGSLSLSCAASGSTFAYYAMGWYRQAPGKERELVAGITWTGGSTYYADSVKGRFTISRDNAKHTDYLQMNSLKPEDTAVYYCAVTYPYGYEYDHWGQGSQVTVSS”: the “polyreactivity (PSR sort gate)” value is reported as “low polyreactivity”.
Consider “QVQLVESGGGLVQAGGSLSLSCAASGSTFYENAMGWYRQAPGKERELVAAITWSGGRTYYADSVKGRFTISRDNAKNTVYLQMNSLKPEDTAVYYCNARARSRKFYYWGQGTQVTVSS”, for which the “polyreactivity (PSR sort gate)” value was “high polyreactivity”.
“QVQLVESGGGLVQAGGSLSLSCAASGSTFYRYAKGWYRQAPGKERELVAAISTRGGSTYYADSVKGRFTISRDNAKNTVYLQMNSLKPEDTAVYYCAAKSGSPDDYDYWGHGTQVTVSS”: the “polyreactivity (PSR sort gate)” value is “high polyreactivity”.
Consider “QVQLVESGGGLVQAGGSLSLSCAASGSTLRYYDMGWYRQAPGKERELVAAISRGGSTYYADSVKGRFTISRDNAKNTVYLQMNSLKPEDTAVYYCNKEYPSSYEYDYWGQGTQVTVSS”, for which the “polyreactivity (PSR sort gate)” value is given as “low polyreactivity”.
“QVQLVESGGGLVQAGGSLSLSCAASGSTYFYAMGWYRQAPGKERELVAAISFSDGITYYADSVKGRFTISRDNAKNTVYLQMNSLKPEDTAVYYCAADYISLREEDYWGQGTQVTVSS”: the “polyreactivity (PSR sort gate)” value is reported as “high polyreactivity”.
The value for “QVQLVESGGGLVQAGGSLSLSCAATGSIFGGNAMGWKRQAPGKERELVATITDRGSSTYYADSVKGRFTISRDNAKNTVYLRMHSLNPDDTAVYYCANAFPDVPEHDYGGQGTQVTVSS” was “low polyreactivity”.
Take “QVQLVESGGGLVQAGGSLSLSCAATGTNFCHNAMGWYRPAPWKERELGAGITSVGSTYFAYSVKGRFTISRDNAKNTVYLQMNSLKPEDTAVYYSAKGYDFRRSYEYWGQGTQVNVSS”: the “polyreactivity (PSR sort gate)” value was “low polyreactivity”.
For “QVQLVESGGGLVQAGGSLSLSCASSGSTLTYYAMGWYRQEPGKEREFVAAIRWSSGNTYYADSVKGRFTISRDNAKNTVYLQMNSLKPEDTAVYYCAKERRYTGRRSYEYDYWGQGTQVTVSS”, the “polyreactivity (PSR sort gate)” value is “low polyreactivity”.
As for “QVQLVESGGGLVQAGGSLSLSFAASGRTFARYAMGWYRQAPGKEREFVAGINWSGGGTYYADSVKGRFTISRDNAKNTVYLQMNSLKTEDTAVYYCAAVPTNRYGYWGQGTQVTVSS”, the “polyreactivity (PSR sort gate)” value was “high polyreactivity”.
As to “QVQLVESGGGLVQAGGSLTLSCAASGSTFDYNVMGWYRQAPGKERELVAAISNAGTTNYADSVKGRFTISRDNAKNTVYLLMNSLKPEDTAVYYCAADLGYYAAVTKYAEYDYWGQGTQVTVSS”, the “polyreactivity (PSR sort gate)” value is given as “low polyreactivity”.
For “QVQLVESGGGLVQAGGSPRLSCAASGRIFGAYAMGWYRQAPGQERELVAGNRSVGSTNYADSVKGRFTISRDNAKNTVYFQMNSLKPEDTAVYYCAARLWHLSYAGQGGDYWGQGTQVTVSS”, the “polyreactivity (PSR sort gate)” value is reported as “low polyreactivity”.
As to “QVQLVESGGGLVQAGGSRRISCAASGITFKWYAMGWYRQAPGKERELVAAISWSTGSTYYADSVKGRFTISRDNAKNTVYLQMNSLKPEDTAVSDCAADLQLPNLGDSYDYWGQGTQVTVSS”, the “polyreactivity (PSR sort gate)” value is given as “high polyreactivity”.
With “QVQLVESGGGLVQAGGSRRLICAASGRIYYYMGWYRQEPGQERELVAASTSSGVSTYYADSVKGRFTISRDNAKNTVDLQMNSLKPEDTAVYYCAAERVYIFWFTHEIFKYWGQGTQVTVSS”, the “polyreactivity (PSR sort gate)” value is “high polyreactivity”.
For the sequence “QVQLVESGGGLVQAGGSRRLRCAASGRIFKNYAMGWYRQAPGKERELVAAMTWSVGSTYYADSVKGRFTISRDNAKKTVYLQMNSLKPEDTAVNYCAARRSGTYRYRYEYWGQGSQVTVSS”, the “polyreactivity (PSR sort gate)” value is “low polyreactivity”.
Consider “QVQLVESGGGLVQAGGSRRLSCAASGFTFYWYAMGWYRQAPGKERELVAAITRGGRTYYADSVKGRFTISRDNAKNTVYLQMNSLKPEDTAVYYCNAVEFTIAWCYTMDYWGQGIQVTVSS”, for which the “polyreactivity (PSR sort gate)” value is reported as “high polyreactivity”.
For the sequence “QVQLVESGGGLVQAGGSRRLSCAASGGTFYYYAMGWYRQAPGKERELVAAIRGSGGSTYYADSVKGRFPISRDNAKNTVYLQMNSLKPVDTAVYYCATRGGYPKGYGYLAFNYWGQGTQVTVSS”, the “polyreactivity (PSR sort gate)” value is “high polyreactivity”.
Regarding “QVQLVESGGGLVQAGGSRRLSCAASGIIFAYYAMGWYRQAPGKERELVASISSTGGSTYYADSVKGRFTISRDNAKNTVYLQMNSLKPEDTAVYYCAVDGLPPKDALHLYYYWGQVTQVTVSS”, the “polyreactivity (PSR sort gate)” value is “low polyreactivity”.
As to “QVQLVESGGGLVQAGGSRRLSCAASGLIFDKAMGWYRQAPGKQREFVAAITYSTGSTYYADSVKGRFTISRDNAKNTVYLQMNSLKPEDTAVYYCAKDGSGHGTERDYWGQGTQVTVSS”, the “polyreactivity (PSR sort gate)” value is reported as “low polyreactivity”.
In the case of “QVQLVESGGGLVQAGGSRRLSCAASGRIICVYAMGWYRQAPGNERDLVAAITIGGSTYYADSVKGRFTISRDNAMNTFYLQMNSLKPEDTAVYYCNRRYNWYLHHYDYWGQGTQVTVSS”, the “polyreactivity (PSR sort gate)” value is recorded as “high polyreactivity”.
Take “QVQLVESGGGLVQAGGSRRLSCAASGRSFYGNAMGWYRQAPGTERECVAGISWRGGRTYYADSVKGRFTISRDNANNTVYLQMNSLKPEETAVYYCAASAGYRGRSGYEYWGQGTQVTVSS”: the “polyreactivity (PSR sort gate)” value is recorded as “high polyreactivity”.
For “QVQLVESGGGLVQAGGSRRLSCAASGRTFYYAMGWYRQAPGKETQLVATITSGGGSTYYADSVKGRFSISRDNAKNTVYLQMNSLKPEDTAVYYCAADYKSSPPLPEYDYWGQGTQVTVSS”, the “polyreactivity (PSR sort gate)” value is on record as “high polyreactivity”.
Turning to “QVQLVESGGGLVQAGGSRRLSCAASGSNFRNNAIGWYRQAPGKERELVAVISRRSGNTYYADSVKGRFTISRDNGKKTVYLPMHSLKPEDTAVYYCASDYCKSSIRGDYWGQGTQVTVSS”, the “polyreactivity (PSR sort gate)” value is “low polyreactivity”.
For “QVQLVESGGGLVQAGGSRRLSCAASGSTFRINAMGWYRQAPGKERELVADINSGGNTTYADSVKGRFTISRDNAKNTVYLQMNSLKPEDTAVYYCAADPVFDLWEFLLDYGYDYWGQGTQVTVSS”, the “polyreactivity (PSR sort gate)” value is reported as “low polyreactivity”.
For “QVQLVESGGGLVQAGGSRRLSCAASGSTFYGYAMGWYRQAPGKEREFVAAITTSGGSTYYADSVKGRFTISRDNAKNTVYLQMNSLKPEDTAVYYCARDLYTEYRWGRLTYDYWGQGTQVTVSS”, the “polyreactivity (PSR sort gate)” value is “low polyreactivity”.
“QVQLVESGGGLVQAGGSRRLSWAASGSTFPRNAMGWYRQAPGKERELVAAISSGGSTYYADSVKWRFTISRDNAKNTVYLQMNSLKPEDTAVYYCAARLYWPIIVVDLYGYDYWGEGTQVTVSS”: the “polyreactivity (PSR sort gate)” value is recorded as “low polyreactivity”.
“QVQLVESGGGLVQAGGSRRLTCAASGFTFEYYAMGWYRQAPGTERELVAAISYSGSSTYYADSVKGRFTISRDNAKNTVYLQMNSLKPEDTAVYYCAARAVSRRFDYWGQGTQVTVSS”: the “polyreactivity (PSR sort gate)” value is on record as “high polyreactivity”.
In the case of “QVQLVESGGGLVQAGGSRSLSCAASGRIFTVYAMGWYRQAPGKERELVAAISGRGGRTTYADSVKGRFTISRDNAKNTVFLQMNSLKPEDTAVYYCAAAYLRYVSTQYHYDYWGEGTQVTVSS”, the “polyreactivity (PSR sort gate)” value was “low polyreactivity”.
As for “QVQLVESGGGLVQAGGSVRLICAASGSIFYTYAMGWYRQAPGKERELVAAISKRGGSTYDADSVKGRFTISRDNAKNTVYLQMNSLKPEDTAVYYCAADTQHVYGSNFYYWGQGTQVTVSS”, the “polyreactivity (PSR sort gate)” value was “high polyreactivity”.
The result for “QVQLVESGGGLVQAGGSVRLSCAASGFIFWYSAMGWYRQAPGKERELVAAISGTGGTTYYADSVKGRFTISRDNAKNTVYLQMNSLKPEDTAVYYCNFRYDSRRTAIGYAYWGQGTQETVSS” reads “low polyreactivity”; that for “QVQLVESGGGLVQAGGSVRLSCAASGRIFRHNTRGWYRQAPGKERELVAAITFSDGNTYYADSVKGRFTISRDNAKNTVYLQMNSLKPEDTAVYYCNAGYSYGVSYAEGGYWGQGTQVTVSS”, “low polyreactivity”; that for “QVQLVESGGGLVQAGGSVRLSCAASGRTFYYNAMGWYRQAPGKERELVAAISWSGGSTYYADSVKGRFTISRDNAKNTVYLQMNSLKPEDTAVYYCAARSRYYHFDYWGQGTQVTVSS”, “high polyreactivity”.
